According to US7390645B2, “Lactose repressor proteins with increased operator DNA binding affinity” (William Marsh Rice University, priority 1997, dated 2008):
“Also recorded” adds a separate entry of the source. Like-named read-outs stand apart in the source and are kept apart here.

Assays:
[1] = molecular target: O^1 operator sequences (lac operator DNA); assay: lac operator DNA binding of lac repressor proteins characterized in vitro; set-up: species or system E. coli; settings: for affinity for lac operator DNA (in words): relative to wild-type lac repressor unless stated
From the text: The term “affinity”, as used in conjunction with the lac operator or an inducer ligand, is defined as 1/Kd, where Kd is the concentration of DNA or ligand required to occupy 50% of the available binding sites.
(§1) To test an altered lac repressor protein, the coding sequence for the altered lac repressor protein can be cloned into an expression vector. The expression vector can then be placed into bacterial or eukaryotic cells containing a reporter gene under lac operator control to test for an active repressor protein. For example, a reporter containing E. coli β-galactosidase (encoded by lacZ) has been constructed by excising the lacZ gene under control of the lac operator from the plasmid pCR2.1 (Invitrogen) and inserting it into plasmid pACYC184 (New England Biolabs). This new composite reporter plasmid is named pZCam and can be co-transformed or electroporated into bacteria with the plasmids containing the coding sequences of altered lac repressor proteins. Host cells for these plasmids should have neither lactose repressor nor β-galactosidase proteins (i.e., the cells are lacI^− lacZ^−). Next, these bacteria are plated in the presence of either methyl umbelliferyl-β-D-galactoside (MUG) or 5-bromo-4-chloro-3-indolyl-β,D-galactoside (X-gal) as indicators to determine whether an active repressor protein is present (white colonies). In the presence of an inducer sugar, colonies containing inducer-responsive repressor protein will be fluorescent (MUG) or blue (X-gal). Alternatively, the coding sequence can be cloned into any expression vector known in the art and transformed into E. coli that are lacI^−, preferably ΔlacI, and lacpOz^+. The lacpOz region can be on a different, but compatible, plasmid or in the bacterial genome. Colonies containing active repressor protein will be white in the absence of an inducer and fluorescent (MUG) or blue (X-gal) in the presence of an inducer. Specific amino acid changes that result in increased operator binding affinity or enhanced ligand responsivity can be determined. LacI derivatives with appropriate properties are then isolated and characterized in vitro for their (a) O^1 operator DNA binding properties in the absence and presence of the appropriate inducer ligand and (b) inducer ligand binding properties in the absence and presence of operator DNA. Purified proteins can be obtained by standard protein purification methods known to those of skill in the art.

[2] = responsivity of lac repressor proteins to inducer ligand; assay type: biochemical, E. coli; settings: relative to wild-type lac repressor
From the text: as §1
Mutants can be screened by phenotypic analysis as described above. In the preferred forms, the plasmid containing the gene for altered lac repressor protein is either co-transformed with the reporter plasmid pZCam or is transformed into E. coli that are ΔlacI and lacpOz^+. Introduction of wild-type lac repressor protein into bacteria containing pZCam or into the ΔlacI/lacpOz^+ bacteria results in white colonies in the presence of MUG or X-gal. In contrast, in the presence of IPTG or the alternative ligand, the colonies are fluorescent (MUG) or blue (X-gal). […]

[3] = tested on: O^1 operator sequences (lac operator DNA); settings: relative to wild-type lac repressor; cited from earlier work
[4] = reduced form; cited from earlier work
[5] = read-out: Kd for O^1 operator sequences

Molecule | affinity for lac operator DNA (in words) [1] | responsivity to inducer (in words) [2] | also measured
Gln60Gly: altered lac repressor protein with glycine substituted for glutamine at amino acid number 60; SEQ ID NO:2 (protein, listed as Escherichia coli) MKPVTLYDVAEYAGVSYQTVSRVVNQASHVSAKTREKVEAAMAELNYIPNRVAQQLAGKGSLLIGVATSSLALHAPSQIVAAIKSRADQLGASVVVSMVERSGVEACKAAVHNLLAQRVSGLIINYPLDDQDAIAVEAACTNVPALFLDVSDQTPINSIIFSHEDGTRLGVEHLVALGHQQIALLAGPLSSVSARLRLAGWHKYLTRNQIQPIAEREGDWSAMSGFQQTMQMLNEGIVPTAMLVANDQMALGAMRAITESGLRVGADISVVGYDDTEDSSCYIPPLTTIKQDFRLLGQTSVDRLLQLSQGQAVKGNQLLPVSLVKRKTTLAPNTQTASPRALADSLMQLARQVSRLESGQ | increased affinity for operator sequences | close to normal responsivity to inducer | Kd ([1]; presence of 1 mM IPTG, read-out: Kd for O^1 operator sequences in the presence of 1 mM IPTG): > 100 nM; Kd [1, 5]: 0.004 nM
wild-type LacI: naturally occurring E. coli lac repressor protein (LacI); SEQ ID NO:1 (protein, listed as Escherichia coli) MKPVTLYDVAEYAGVSYQTVSRVVNQASHVSAKTREKVEAAMAELNYIPNRVAQQLAGKQSLLIGVATSSLALHAPSQIVAAIKSRADQLGASVVVSMVERSGVEACKAAVHNLLAQRVSGLIINYPLDDQDAIAVEAACTNVPALFLDVSDQTPINSIIFSHEDGTRLGVEHLVALGHQQIALLAGPLSSVSARLRLAGWHKYLTRNQIQPIAEREGDWSAMSGFQQTMQMLNEGIVPTAMLVANDQMALGAMRAITESGLRVGADISVVGYDDTEDSSCYIPPLTTIKQDFRLLGQTSVDRLLQLSQGQAVKGNQLLPVSLVKRKTTLAPNTQTASPRALADSLMQLARQVSRLESGQ | – | – | Kd [1, 5]: 0.012 nM
Val52Cys: mutation of lac repressor amino acid 52 from Val to Cys (protein) MKPVTLYDVAEYAGVSYQTVSRVVNQASHVSAKTREKVEAAMAELNYIPNRCAQQLAGKQSLLIGVATSSLALHAPSQIVAAIKSRADQLGASVVVSMVERSGVEACKAAVHNLLAQRVSGLIINYPLDDQDAIAVEAACTNVPALFLDVSDQTPINSIIFSHEDGTRLGVEHLVALGHQQIALLAGPLSSVSARLRLAGWHKYLTRNQIQPIAEREGDWSAMSGFQQTMQMLNEGIVPTAMLVANDQMALGAMRAITESGLRVGADISVVGYDDTEDSSCYIPPLTTIKQDFRLLGQTSVDRLLQLSQGQAVKGNQLLPVSLVKRKTTLAPNTQTASPRALADSLMQLARQVSRLESGQ | – | – | affinity for lac operator DNA (in words), from cited work [3]: increased affinity for the lac operator DNA; response to inducer (in words), from cited work [4]: normal response to inducer in reduced form
Gln60Gly/Leu148Phe (protein) MKPVTLYDVAEYAGVSYQTVSRVVNQASHVSAKTREKVEAAMAELNYIPNRVAQQLAGKGSLLIGVATSSLALHAPSQIVAAIKSRADQLGASVVVSMVERSGVEACKAAVHNLLAQRVSGLIINYPLDDQDAIAVEAACTNVPALFFDVSDQTPINSIIFSHEDGTRLGVEHLVALGHQQIALLAGPLSSVSARLRLAGWHKYLTRNQIQPIAEREGDWSAMSGFQQTMQMLNEGIVPTAMLVANDQMALGAMRAITESGLRVGADISVVGYDDTEDSSCYIPPLTTIKQDFRLLGQTSVDRLLQLSQGQAVKGNQLLPVSLVKRKTTLAPNTQTASPRALADSLMQLARQVSRLESGQ | increased affinity for operator sequence compared to Leu148Phe (affinity comparable to wild-type lac repressor) | enhanced inducer responsivity comparable to Leu148Phe | –
Pro320Ala: lac repressor protein Pro320Ala identified by random mutagenesis and phenotypic screening (protein) MKPVTLYDVAEYAGVSYQTVSRVVNQASHVSAKTREKVEAAMAELNYIPNRVAQQLAGKQSLLIGVATSSLALHAPSQIVAAIKSRADQLGASVVVSMVERSGVEACKAAVHNLLAQRVSGLIINYPLDDQDAIAVEAACTNVPALFLDVSDQTPINSIIFSHEDGTRLGVEHLVALGHQQIALLAGPLSSVSARLRLAGWHKYLTRNQIQPIAEREGDWSAMSGFQQTMQMLNEGIVPTAMLVANDQMALGAMRAITESGLRVGADISVVGYDDTEDSSCYIPPLTTIKQDFRLLGQTSVDRLLQLSQGQAVKGNQLLAVSLVKRKTTLAPNTQTASPRALADSLMQLARQVSRLESGQ | increased DNA affinity | normal inducer responsivity; also recorded: wild-type inducer responsivity | operator DNA affinity relative to wild-type lac repressor ([1]; higher affinity than wild-type): 10 fold
Gln55Glu: Gln55Glu mutant of the lac repressor (protein) MKPVTLYDVAEYAGVSYQTVSRVVNQASHVSAKTREKVEAAMAELNYIPNRVAQELAGKQSLLIGVATSSLALHAPSQIVAAIKSRADQLGASVVVSMVERSGVEACKAAVHNLLAQRVSGLIINYPLDDQDAIAVEAACTNVPALFLDVSDQTPINSIIFSHEDGTRLGVEHLVALGHQQIALLAGPLSSVSARLRLAGWHKYLTRNQIQPIAEREGDWSAMSGFQQTMQMLNEGIVPTAMLVANDQMALGAMRAITESGLRVGADISVVGYDDTEDSSCYIPPLTTIKQDFRLLGQTSVDRLLQLSQGQAVKGNQLLPVSLVKRKTTLAPNTQTASPRALADSLMQLARQVSRLESGQ | – | – | affinity for lac operator DNA (in words), from cited work [3]: decreased affinity for lac operator DNA
Leu148Phe (protein) MKPVTLYDVAEYAGVSYQTVSRVVNQASHVSAKTREKVEAAMAELNYIPNRVAQQLAGKQSLLIGVATSSLALHAPSQIVAAIKSRADQLGASVVVSMVERSGVEACKAAVHNLLAQRVSGLIINYPLDDQDAIAVEAACTNVPALFFDVSDQTPINSIIFSHEDGTRLGVEHLVALGHQQIALLAGPLSSVSARLRLAGWHKYLTRNQIQPIAEREGDWSAMSGFQQTMQMLNEGIVPTAMLVANDQMALGAMRAITESGLRVGADISVVGYDDTEDSSCYIPPLTTIKQDFRLLGQTSVDRLLQLSQGQAVKGNQLLPVSLVKRKTTLAPNTQTASPRALADSLMQLARQVSRLESGQ | slightly diminished DNA affinity; also recorded: diminished affinity for operator sequences | enhanced responsivity to IPTG | –
